Assay results as given in PMC10899256, “TBC1D23 mediates Golgi-specific LKB1 signaling” (Nature Communications, 2024).

Columns and labels:
[1] = target: T1, purified GST-TBC1D23 PH domain (545–684) (human, UniProt Q9NUY8-2 545-684); test: pull-down; recombinant proteins: MBP or MBP-tagged LKB1 CRD-LFa held, purified GST-TBC1D23 PH as prey; same procedure as for GST-tagged proteins (50 mM Tris pH 8.0, 500 mM NaCl, 0.05% Triton X-100, 4 °C 1 h); conditions: both partners purified
T1 construct: also called purified TBC1D23 PH
T1 sequence (Q9NUY8 560-699): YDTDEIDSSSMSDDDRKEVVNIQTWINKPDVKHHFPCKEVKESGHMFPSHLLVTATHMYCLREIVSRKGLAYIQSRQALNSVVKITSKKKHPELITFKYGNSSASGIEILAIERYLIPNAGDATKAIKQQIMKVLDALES

[2] = target: T2, purified TBC1D23 PH domain (545–684) (human, UniProt Q9NUY8-2 545-684); test: ITC; LKB1-LFa motif peptides (1.0 mM) titrated into TBC1D23 PH domain (50 µM) at 25 °C; 100 mM Tris pH 8.0, 500 mM NaCl, 5% v/v glycerol; conditions: both partners purified
T2 construct: Used as prey for GST-tagged baits on glutathione beads and in ITC, so the GST was probably removed
T2 sequence (Q9NUY8 560-699): as above

| binding result [1] | fold by which the affinity of LKB1 WT is higher [2] | Binder | further results |
| --- | --- | --- | --- |
| binds | – | MBP-LKB1 CRD-LFa WT (domain or fragment, human, UniProt Q15831 347-433, looked up, LKB1 (STK11) CRD, residues 347–433; also called LKB1 WT; LKB1 CRD (347–433)) ADEDEDLFDIEDDIIYTQDFTVPGQVPEEEASHNGQRRGLPKAVCMNGTEAAQLSTKSRAEGRAPNPARKACSASSKIRRLSACKQQ | – |
| binds | – | MBP-LKB1 CRD-LFa F354A (domain or fragment, human, UniProt Q15831 347-433, looked up, LKB1 (STK11) CRD, residues 347–433, with F354A; also called LKB1 F354A) ADEDEDLADIEDDIIYTQDFTVPGQVPEEEASHNGQRRGLPKAVCMNGTEAAQLSTKSRAEGRAPNPARKACSASSKIRRLSACKQQ | – |
| binds | – | MBP-LKB1 CRD-LFa F354L (domain or fragment, human, UniProt Q15831 347-433, looked up, LKB1 (STK11) CRD, residues 347–433, with F354L (reported in Peutz–Jeghers patients, present in gnomAD); also called LKB1 F354L) ADEDEDLLDIEDDIIYTQDFTVPGQVPEEEASHNGQRRGLPKAVCMNGTEAAQLSTKSRAEGRAPNPARKACSASSKIRRLSACKQQ | – |
| – | – | GADEDEDLFDIEDDIIYTQD (LKB1 (STK11) LFa motif peptide; also called LKB1-LFa motif peptide; LKB1-LFa WT) [LKB1 LFa peptide WT] | Ka [2]: 1.25e+06 M⁻¹; Kd [2]: 800 nM; stoichiometry N [2]: 1 |
| – | ~3 fold | GADEDEDLADIEDDIIYTQD (LKB1 (STK11) LFa motif peptide with F354A; also called LKB1 F354A; LKB1-LFa mutants) [LKB1 LFa peptide F354A] | – |
| – | ~3 fold | GADEDEDLLDIEDDIIYTQD (LKB1 (STK11) LFa motif peptide with F354L, a mutation reported in Peutz–Jeghers patients and present in gnomAD; also called LKB1 F354L; LKB1-LFa mutants) [LKB1 LFa peptide F354L] | – |
